Experimental data reported in patent publication US20190374506A1 (BETH ISREAL DEACONESS MEDICAL CENTER, published 2019).
Values belong to the binder of their own block, whether it stands above or below them.

Legend:
[1] = target: the molecule itself; experiment: gel filtration of HEK293 lysate, fractions on SDS-PAGE, anti-Myc blot
Procedure: 293 cells were transfected with the indicated expression vectors. After 24 hours, cells were washed with PBS, lysed and filtered through a 0.45 μm syringe filter. 500 μl of lysate (4 mg/ml) was loaded into a Superdex200 10/300 GL column (GE Lifesciences Cat. No. 17-5175-01). Tandem columns gel filtrations were performed by further attaching a series Superdex 75 10/300 GL column (GE Lifesciences Cat. No. 17-5174-01). Samples were separated in a Superdex75 column first, followed by a Superdex 200 column. Chromatography was performed by using anAKTA FPLC (GE Lifesciences Cat. No. 18-1900-26), and protein complexes were resolved and eluted with lysis buffer at 0.5 ml/minute, 500 μl per fraction. 40 μl aliquots of each fraction were separated by SDS-PAGE and western blot analysis was performed with the indicated antibodies. Before sample separation, molecular-weight resolution of the columns was estimated by running the Gel Filtration Calibration Kit (GE Lifesciences, #28-4038-42) to determine retention times on Coomassie-stained SDS-PAGE protein gels.

Flag-WWP1 [2] = target: T1, Flag-WWP1 (Homo sapiens (Human), UniProt Q9H0M0 1-922); experiment: co-immunoprecipitation: IP Flag, WB PTEN
T1 construct: also called full-length Flag-WWP1; recombinant Flag-WWP1; not shown: Flag tag

[3] = target: T2, Flag-WWP1 ΔWW domain (deletion 341-547) (Homo sapiens (Human), UniProt Q9H0M0 1-922); experiment: co-immunoprecipitation from 293 cells: IP Flag, WB PTEN
T2 construct: The two kept ranges are counted on the 922-residue WWP1 entry; not shown: Flag tag
T2 sequence: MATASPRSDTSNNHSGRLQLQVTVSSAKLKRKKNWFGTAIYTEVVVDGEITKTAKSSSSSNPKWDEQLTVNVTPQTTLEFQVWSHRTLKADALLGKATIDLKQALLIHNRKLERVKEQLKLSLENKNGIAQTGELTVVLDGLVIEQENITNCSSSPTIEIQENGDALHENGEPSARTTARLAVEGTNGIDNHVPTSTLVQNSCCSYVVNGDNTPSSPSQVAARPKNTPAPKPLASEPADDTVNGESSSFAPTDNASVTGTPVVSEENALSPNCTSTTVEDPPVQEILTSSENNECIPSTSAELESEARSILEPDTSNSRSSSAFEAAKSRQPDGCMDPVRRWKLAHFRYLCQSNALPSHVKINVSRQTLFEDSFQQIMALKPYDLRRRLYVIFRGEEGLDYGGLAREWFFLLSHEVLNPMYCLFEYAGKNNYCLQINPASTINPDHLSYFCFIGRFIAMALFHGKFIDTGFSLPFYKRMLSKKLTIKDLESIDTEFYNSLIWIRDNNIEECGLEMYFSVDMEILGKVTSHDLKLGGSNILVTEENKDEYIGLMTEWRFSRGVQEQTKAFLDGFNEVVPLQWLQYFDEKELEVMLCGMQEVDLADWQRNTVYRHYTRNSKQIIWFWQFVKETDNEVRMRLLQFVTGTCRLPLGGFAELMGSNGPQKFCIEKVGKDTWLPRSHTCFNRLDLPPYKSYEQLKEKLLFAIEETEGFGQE
Procedure: Lysates of 293 cells transfected with indicated constructs were analysed by immunoprecipitation and/or western blot with indicated antibodies.
Western Blotting and Immunoprecipitation. For western blotting, cells were lysed in RIPA buffer (Boston BioProducts) supplemented with protease (Roche) and phosphatase (Roche) inhibitor. Proteins were separated on NuPAGE 4-12% Bis-Tris gradient gels (Invitrogen), transferred to polyvinylidine difluoride membranes (Immobilon P, Millipore) and the blots were probed with the indicated antibodies. For immunoprecipitation, PC3, 293T and MEF cells were transfected with the indicated expression vectors by using LIPOFECTAMIN 2000 (Life Technologies). 24 hours after transfection, cells were lysed in RIPA buffer with protease (Roche) and phosphatase (Roche) inhibitor. 500 μg of total lysates were pre-cleared for 30 minutes at 4° C., and then immunoprecipitated with anti-Myc (Cell Signaling Technology 9B11, 1:500), or anti-PTEN (Cell Signaling Technology 9559, 1:500) antibody overnight at 4° C. The Protein-A or Protein-G sepharose beads (GE Healthcare) were then added and incubated for another 2 hours. The immunoprecipitates were washed with RIPA buffer three times. […]

Flag-WWP1 [4] = target: T1, Flag-WWP1; experiment: reciprocal co-immunoprecipitation from 293 cells: IP HA / WB Flag and IP Flag / WB HA
HA-PTEN = target: T3, HA-PTEN (human, UniProt P60484 1-403); experiment: anti-PTEN immunoprecipitation from DU145 cells transfected with HA-PTEN, SDS-PAGE, mass-spectrometric peptide sequencing of the bands (association in the precipitate)
T3 construct: Expressed in DU145 cells and immunoprecipitated with anti-PTEN antibody for mass spectrometry; also called exogenous PTEN; pcDNA3-HA-PTEN; not shown: HA tag
Description: FIG. 2A is a Western blot. Lysates from DU145 cells transfected with HA-PTEN were immunoprecipitated with an anti-PTEN antibody followed by mass-spectrometric peptide sequencing. WWP1 and NEDD4-1 were identified.
In order to identify the E3 ligases that induce PTEN atypical K27-linked poly-ubiquitination, exogenous PTEN was immunoprecipitated from DU145 cells, followed by identification of the proteins that interacted with PTEN by mass spectrometry (FIG. 2A; FIG. 18).

B1: PTEN K342/K344R mutant (enzyme, not shown: small tags and cut ends)
chain: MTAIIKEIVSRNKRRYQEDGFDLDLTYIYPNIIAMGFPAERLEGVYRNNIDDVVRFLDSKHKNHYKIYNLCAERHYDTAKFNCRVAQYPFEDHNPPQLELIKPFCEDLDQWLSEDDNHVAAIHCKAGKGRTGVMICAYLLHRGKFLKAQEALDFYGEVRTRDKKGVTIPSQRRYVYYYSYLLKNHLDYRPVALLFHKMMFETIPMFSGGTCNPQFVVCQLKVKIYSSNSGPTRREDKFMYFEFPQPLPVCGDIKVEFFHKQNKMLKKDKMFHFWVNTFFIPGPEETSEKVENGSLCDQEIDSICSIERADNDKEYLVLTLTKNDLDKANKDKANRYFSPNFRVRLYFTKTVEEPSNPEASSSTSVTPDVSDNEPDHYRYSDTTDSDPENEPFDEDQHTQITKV
notes: also called Myc-PTEN K342/K344R mutant; PTEN K342/K344R ubiquitination defective mutant
binding result [1]: binds

B2: PTEN 4E mutant (enzyme)
chain: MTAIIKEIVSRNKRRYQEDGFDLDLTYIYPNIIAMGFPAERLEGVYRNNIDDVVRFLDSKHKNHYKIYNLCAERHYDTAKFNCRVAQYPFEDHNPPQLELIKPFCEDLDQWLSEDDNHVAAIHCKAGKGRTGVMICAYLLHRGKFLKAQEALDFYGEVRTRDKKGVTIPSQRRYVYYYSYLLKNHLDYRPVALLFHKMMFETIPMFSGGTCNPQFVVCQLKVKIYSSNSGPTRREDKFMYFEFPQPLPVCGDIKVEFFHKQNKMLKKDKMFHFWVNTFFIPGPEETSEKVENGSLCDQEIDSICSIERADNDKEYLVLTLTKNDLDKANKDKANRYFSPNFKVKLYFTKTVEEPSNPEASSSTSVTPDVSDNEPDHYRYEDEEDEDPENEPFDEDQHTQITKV
notes: also called pcDNA3-Myc-PTEN 4E; phosphomimetic 4E; not shown: Myc tag by the plasmid list
binding result (Flag-WWP1 [2]): no binding

binding result [3]: no binding
B3: Myc-PTEN (enzyme)
chain: not shown
notes: also called pcDNA3-Myc-PTEN; not shown: Myc tag

B4: N-terminal PTEN (1-187) (enzyme, not shown: small tags and cut ends)
chain: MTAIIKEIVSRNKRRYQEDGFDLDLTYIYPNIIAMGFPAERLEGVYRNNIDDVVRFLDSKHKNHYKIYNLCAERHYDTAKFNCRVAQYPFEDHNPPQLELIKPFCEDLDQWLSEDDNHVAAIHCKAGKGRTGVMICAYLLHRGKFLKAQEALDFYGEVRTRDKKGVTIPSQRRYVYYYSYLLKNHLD
binding result (Flag-WWP1 [4]): no binding

binding result (HA-PTEN): binds
B5: Cytoskeleton-associated protein 4 (other)
chain: MPSAKQRGSKGGHGAASPSEKGAHPSGGADDVAKKPPPAPQQPPPPPAPHPQQHPQQHPQNQAHGKGGHRGGGGGGGKSSSSSSASAAAAAAAASSSASCSRRLGRALNFLFYLALVAAAAFSGWCVHHVLEEVQQVRRSHQDFSRQREELGQGLQGVEQKVQSLQATFGTFESILRSSQHKQDLTEKAVKQGESEVSRISEVLQKLQNEILKDLSDGIHVVKDARERDFTSLENTVEERLTELTKSINDNIAIFTEVQKRSQKEINDMKAKVASLEESEGNKQDLKALKEAVKEIQTSAKSREWDMEALRSTLQTMESDIYTEVRELVSLKQEQQAFKEAADTERLALQALTEKLLRSEESVSRLPEEIRRLEEELRQLKSDSHGPKEDGGFRHSEAFEALQQKSQGLDSRLQHVEDGVLSMQVASARQTESLESLLSKSQEHEQRLAALQGRLEGLGSSEADQDGLASTVRSLGETQLVLYGDVEELKRSVGELPSTVESLQKVQEQVHTLLSQDQAQAARLPPQDFLDRLSSLDNLKASVSQVEADLKMLRTAVDSLVAYSVKIETNENNLESAKGLLDDLRNDLDRLFVKVEKIHEKV
